Reference: patent publication US20030162277

Tests used:
[1] = target: T1, insulin receptor tyrosine kinase substrate peptide KKKLPATGDYMNMSPVGD
T1 chain: KKKLPATGDYMNMSPVGD

[2] = target: T2, csk tyrosine kinase substrate peptide KKKKEEIYFFF
T2 chain: KKKKEEIYFFF

[3] = target: T3, raf-1 kinase substrate peptide SGQLIDSMANSFVGTRS
T3 chain: SGQLIDSMANSFVGTRS

[4] = target: T4, Ca-/calmodulin-dependent PK substrate peptide KKALRRQETVDAL
T4 chain: KKALRRQETVDAL

[5] = target: T5, p42/p44 MAP kinase substrate peptide LMECRNSPVAKT
T5 chain: LMECRNSPVAKT

[6] = target: T6, myosin light chain kinase substrate peptide KKRPQRATSNVFS
T6 chain: KKRPQRATSNVFS

[7] = target: T7, cAMP-dependent protein kinase substrate peptide LRRASLG
T7 chain: LRRASLG

[8] = target: T8, c-src tyrosine kinase substrate peptide YIYGSFK
T8 chain: YIYGSFK

[9] = target: T9, cdc2-kinase substrate peptide Ac-SPGRRRRK
T9 chain: SPGRRRRK

[10] = target: T10, p42/p44 MAP kinase substrate peptide APRTPGGRR
T10 chain: APRTPGGRR

[11] = target: T11, protein kinase C substrate peptide QKRPSQRSK
T11 chain: QKRPSQRSK

[12] = target: T12, abl tyrosine kinase substrate peptide EAIYAAPFAKKK
T12 chain: EAIYAAPFAKKK

[13] = target: T13, p34 cdc-kinase substrate peptide PKTPKKAKKL
T13 chain: PKTPKKAKKL

[14] = target: T14, cGMP-dependent protein kinase substrate peptide RKISASEFDRPLR
T14 chain: RKISASEFDRPLR

[15] = target: T15, casein kinase I substrate peptide RRKDLHDDEEDEAMSITA
T15 chain: RRKDLHDDEEDEAMSITA

[16] = target: T16, protein kinase C substrate peptide KKRFSFKKSFKLSGFSFK
T16 chain: KKRFSFKKSFKLSGFSFK

[17] = target: T17, Ca-/calmodulin-dependent PK substrate peptide PLARTLSVAGLPGK
T17 chain: PLARTLSVAGLPGK

[18] = target: T18, S6 kinase substrate peptide LSSLRASTSKSGGQK
T18 chain: LSSLRASTSKSGGQK

[19] = target: T19, casein kinase II substrate peptide RRRDDDSDDD
T19 chain: RRRDDDSDDD

[20] = target: T20, p42/p44 MAP kinase substrate peptide EAAEAEPAEPSSPAAEAEGA
T20 chain: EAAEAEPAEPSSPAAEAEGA

B1: Murine Lymph node Stromal cell Kinase 1 (MLSK-1) (protein)
chain: MESVALLQRPSQAPSASALASESARPLADGLIKSPKPLMKKQAVKRHHHKHNLRHRYEFLETLGKGTYGKVKKARESSGRLVAIKSIRKDKIKDEQDLLHIRREIEIMSSLNHPHIIAIHEVFENSSKIVIVMEYASRGDLYDYISERPRLSERDARHFFRQIVSALHYCHQNGIVHRDLKLENILLDANGNIKIADFGLSNLYHKGKFLQTFCGSPLYASPEIVNGKPYVGPEVDSWSLGVLLYILVHGTMPFDGQDHKTLVKQISNGAYREPPKPSDACGLIRWLLMVNPTRRATLEDVASHWWVNWGYTTGVGEQEALREGGHPSGDFGRASMADWLRRSSRPLLENGAKVCSFFKQHVPGGGSTVPGLERQHSLKKSRKENDMAQNLQGDPAEDTSSRPGKSSLKLPKGILKKKSSTSSGEVQEDPQELRPVPDTPGQPVPAVSLLPRKGILKKSRQRESGYYSSPEPSESGELLDASDVFVSGDPVEQKSPQASGLLLHRKGILKLNGKFSRTALEGTTPSTFGSLDQLASSHPAARPSRPSGAVSEDSILSSESFDQLDLPERLPETPLRGCVSVDNLRGLEQPPSEGLKRWWQESLGDSCFSLTDCQEVTAAYRQALGICSKLS
With B1 the Phosphorylation by MLSK-1 (% of max.) [1] was 33.7 % of max, the Phosphorylation by MLSK-1 (% of max.) [2] was 82.1 % of max and the Phosphorylation by MLSK-1 (% of max.) [3] was 43.1 % of max. The Phosphorylation by MLSK-1 (% of max.) [4] was 20.9 % of max, the Phosphorylation by MLSK-1 (% of max.) [5] was 3.8 % of max and the Phosphorylation by MLSK-1 (% of max.) [6] was 72 % of max. For the same protein, the Phosphorylation by MLSK-1 (% of max.) [7] was 65.9 % of max, the Phosphorylation by MLSK-1 (% of max.) [8] was 66.6 % of max and the Phosphorylation by MLSK-1 (% of max.) [9] was 94.8 % of max. The Phosphorylation by MLSK-1 (% of max.) [10] was 88.6 % of max, the Phosphorylation by MLSK-1 (% of max.) [11] was 75 % of max and the Phosphorylation by MLSK-1 (% of max.) [12] was 69.3 % of max. The Phosphorylation by MLSK-1 (% of max.) [13] was 82 % of max, the Phosphorylation by MLSK-1 (% of max.) [14] was 62.2 % of max and the Phosphorylation by MLSK-1 (% of max.) [15] was 14.1 % of max. For the same protein, the Phosphorylation by MLSK-1 (% of max.) [16] was 100 % of max, the Phosphorylation by MLSK-1 (% of max.) [17] was 10.3 % of max and the Phosphorylation by MLSK-1 (% of max.) [18] was 66.6 % of max. For the same protein, the Phosphorylation by MLSK-1 (% of max.) [19] was 17.6 % of max and the Phosphorylation by MLSK-1 (% of max.) [20] was 0 % of max.
